According to PMC11417369, “DNA sequence and chromatin differentiate sequence-specific transcription factor binding in the human malaria parasite Plasmodium falciparum”:

T1: PF3D7_0420300 D1 (Plasmodium falciparum, UniProt Q8I1N6 1956-2015)
T1 sequence: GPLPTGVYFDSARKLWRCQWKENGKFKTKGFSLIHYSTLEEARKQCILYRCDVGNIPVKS

B1: CACACA_negctrl_site1645 (dsDNA)
DNA 1: TATTTTAGAGAAAAAAATAAATTACAAAATGTTAGG
DNA 2: CCTAACATTTTGTAATTTATTTTTTTCTCTAAAATA
B2: CACACA_negctrl_site786 (dsDNA)
DNA 1: AATAATAAATATATATATATATATATATATATATTT
DNA 2: AAATATATATATATATATATATATATATTTATTATT
B3: CACACA_negctrl_site583 (dsDNA)
DNA 1: AAAAAAAAAAAAAAAAAAAAAAAAATATATAATTTA
DNA 2: TAAATTATATATTTTTTTTTTTTTTTTTTTTTTTTT
B4: CACACA_negctrl_site1620 (dsDNA)
DNA 1: ATCTAAATAATATATATATATAATATTAATAATATA
DNA 2: TATATTATTAATATTATATATATATATTATTTAGAT
B5: CACACA_negctrl_site329 (dsDNA)
DNA 1: TTTAATTTATATAATGATATTAAGTTGGTTATTAGG
DNA 2: CCTAATAACCAACTTAATATCATTATATAAATTAAA
B6: CACACA_negctrl_site491 (dsDNA)
DNA 1: ATTTAATATCACAATATATTTTTTACCCTTATCAGC
DNA 2: GCTGATAAGGGTAAAAAATATATTGTGATATTAAAT
B7: CACACA_negctrl_site62 (dsDNA)
DNA 1: TATATGTTAATTTTTTTTTTTTTTTTTTTTTTTATA
DNA 2: TATAAAAAAAAAAAAAAAAAAAAAAATTAACATATA
B8: CACACA_negctrl_site753 (dsDNA)
DNA 1: ATTTTTTTTTAATGCAATATATTTTGAAAATTTTAT
DNA 2: ATAAAATTTTCAAAATATATTGCATTAAAAAAAAAT
B9: CACACA_negctrl_site116 (dsDNA)
DNA 1: ATTGGAAAATATGTTATATATATATATATATATATG
DNA 2: CATATATATATATATATATATAACATATTTTCCAAT
B10: CACACA_negctrl_site77 (dsDNA)
DNA 1: TCTTTATATCATCTTTCTAAATATATATATATATAA
DNA 2: TTATATATATATATATTTAGAAAGATGATATAAAGA
B11: CACACA_negctrl_site1084 (dsDNA)
DNA 1: TTTTATTGATTATTCATAAATATGCTATTCATCTAA
DNA 2: TTAGATGAATAGCATATTTATGAATAATCAATAAAA
B12: CACACA_negctrl_site905 (dsDNA)
DNA 1: TATAATAATAATAATAATAATAATAATAATAATAAT
DNA 2: ATTATTATTATTATTATTATTATTATTATTATTATA
B13: CACACA_negctrl_site1423 (dsDNA)
DNA 1: TTTTTATAACTATATTATATAACTTTTGTACGAACT
DNA 2: AGTTCGTACAAAAGTTATATAATATAGTTATAAAAA
B14: CACACA_negctrl_site1015 (dsDNA)
DNA 1: TATAAATAAAGACTTTTTTCTAACTTTTTTTTGTAT
DNA 2: ATACAAAAAAAAGTTAGAAAAAAGTCTTTATTTATA
B15: CACACA_negctrl_site214 (dsDNA)
DNA 1: TTTTTATTTTTATACATATAATATATTATGATTAAA
DNA 2: TTTAATCATAATATATTATATGTATAAAAATAAAAA
B16: CACACA_negctrl_site810 (dsDNA)
DNA 1: AGAAAGGAGGAAATAAAAGGACTTCTTTTTTTATAT
DNA 2: ATATAAAAAAAGAAGTCCTTTTATTTCCTCCTTTCT
B17: CACACA_negctrl_site730 (dsDNA)
DNA 1: AGATGATATATTATATATCCTTTTAATAAATGTAAT
DNA 2: ATTACATTTATTAAAAGGATATATAATATATCATCT
B18: CACACA_negctrl_site129 (dsDNA)
DNA 1: AAGCATTTTTTTTAAAGCCTGTTCATCATCCTTACC
DNA 2: GGTAAGGATGATGAACAGGCTTTAAAAAAAATGCTT
B19: CACACA_negctrl_site460 (dsDNA)
DNA 1: ATAATGTATTTATATATATATATATATTTTAATAAA
DNA 2: TTTATTAAAATATATATATATATATAAATACATTAT
B20: CACACA_negctrl_site173 (dsDNA)
DNA 1: TTTTATATATATATATATATATATATATATGTATAT
DNA 2: ATATACATATATATATATATATATATATATATAAAA
B21: CACACA_negctrl_site1558 (dsDNA)
DNA 1: TCTTAAATATATAAATTGAAAAATATAAAAGTAATA
DNA 2: TATTACTTTTATATTTTTCAATTTATATATTTAAGA
B22: CACACA_negctrl_site1407 (dsDNA)
DNA 1: CACATATACAAAAAGAAATGTTTAGTTGAAAATTAA
DNA 2: TTAATTTTCAACTAAACATTTCTTTTTGTATATGTG
B23: CACACA_negctrl_site1603 (dsDNA)
DNA 1: TGATTTATCTATATTTTATAAGTTATTTATTTTTTT
DNA 2: AAAAAAATAAATAACTTATAAAATATAGATAAATCA
B24: CACACA_negctrl_site1083 (dsDNA)
DNA 1: ATGAAAAAAAAAAAAAAAAAAAAAAAAAAAAAAATA
DNA 2: TATTTTTTTTTTTTTTTTTTTTTTTTTTTTTTTCAT
B25: CACACA_negctrl_site793 (dsDNA)
DNA 1: TCCTATAATTTTTTAATCAAAATATTTTATCCTTTG
DNA 2: CAAAGGATAAAATATTTTGATTAAAAAATTATAGGA
B26: CACACA_negctrl_site245 (dsDNA)
DNA 1: TTTTTATTTTATAATATATTCCTTTTCCTTTCTTTC
DNA 2: GAAAGAAAGGAAAAGGAATATATTATAAAATAAAAA
B27: CACACA_negctrl_site620 (dsDNA)
DNA 1: TTTTTTTACTTAATAGTTCAACATATATCTCAATGT
DNA 2: ACATTGAGATATATGTTGAACTATTAAGTAAAAAAA
B28: CACACA_negctrl_site1408 (dsDNA)
DNA 1: ATTTATTTTAATTTTTTTTTTTCTCTTTTGGATCTA
DNA 2: TAGATCCAAAAGAGAAAAAAAAAAATTAAAATAAAT
B29: CACACA_negctrl_site237 (dsDNA)
DNA 1: ATTCTATTTTTTATAAAACCATGTCATCAACATAGG
DNA 2: CCTATGTTGATGACATGGTTTTATAAAAAATAGAAT
B30: CACACA_site6208 (dsDNA)
DNA 1: ATATAAATATGACACACACACAAAAAAAATAAAGAC
DNA 2: GTCTTTATTTTTTTTGTGTGTGTGTCATATTTATAT
B31: CACACA_site117 (dsDNA)
DNA 1: ATATATATAAAACACACACACAAAAAAAATAAAGAC
DNA 2: GTCTTTATTTTTTTTGTGTGTGTGTTTTATATATAT
B32: CACACA_negctrl_site1491 (dsDNA)
DNA 1: GTAGCCTTTCTTTATAAAGGCAAACAAACAAAAAAT
DNA 2: ATTTTTTGTTTGTTTGCCTTTATAAAGAAAGGCTAC
B33: CACACA_negctrl_site1155 (dsDNA)
DNA 1: TAAATGTCTTCAATGAAGTGGAAATGCTGTTATATA
DNA 2: TATATAACAGCATTTCCACTTCATTGAAGACATTTA
B34: CACACA_negctrl_site979 (dsDNA)
DNA 1: ATGTAATTCTTTTACTTTTTTTTTTTTTTTTTTTTT
DNA 2: AAAAAAAAAAAAAAAAAAAAAGTAAAAGAATTACAT
B35: CACACA_negctrl_site1765 (dsDNA)
DNA 1: TACTTTATATTATATATATATATATATATATATATA
DNA 2: TATATATATATATATATATATATATAATATAAAGTA
B36: CACACA_site8094 (dsDNA)
DNA 1: AAAAAAATTTGGCATACACACACACCCCCACCCACA
DNA 2: TGTGGGTGGGGGTGTGTGTGTATGCCAAATTTTTTT
B37: CACACA_negctrl_site1391 (dsDNA)
DNA 1: ATTTTTTTTTTTTTTTTTTTTTTTTTTTGATTTGTG
DNA 2: CACAAATCAAAAAAAAAAAAAAAAAAAAAAAAAAAT
B38: CACACA_negctrl_site637 (dsDNA)
DNA 1: GTGTAAAGGTATTATTGTATTATTCAAAATAAAAAA
DNA 2: TTTTTTATTTTGAATAATACAATAATACCTTTACAC
B39: CACACA_negctrl_site674 (dsDNA)
DNA 1: TAAAATGATAAATGAATGTGATCATTTTATAAAATA
DNA 2: TATTTTATAAAATGATCACATTCATTTATCATTTTA
B40: CACACA_negctrl_site1241 (dsDNA)
DNA 1: ATTTTTTTTTTTTTTTTTTTTTTGTTTATACAAAAT
DNA 2: ATTTTGTATAAACAAAAAAAAAAAAAAAAAAAAAAT
B41: CACACA_negctrl_site1311 (dsDNA)
DNA 1: TTACATTTTTGAAATAGATACATACACGTGTATGTA
DNA 2: TACATACACGTGTATGTATCTATTTCAAAAATGTAA
B42: CACACA_negctrl_site825 (dsDNA)
DNA 1: TAAGTTCACAAAAAAAAAAAAAAATAAAGAAATAAA
DNA 2: TTTATTTCTTTATTTTTTTTTTTTTTTGTGAACTTA
B43: CACACA_negctrl_site1574 (dsDNA)
DNA 1: TTTTTTAAAAGAAAATAAAAAATAAGCATAATATGA
DNA 2: TCATATTATGCTTATTTTTTATTTTCTTTTAAAAAA
B44: CACACA_negctrl_site515 (dsDNA)
DNA 1: GACTCATTAAGGATTATTCCTAATGATCAAAAGAAC
DNA 2: GTTCTTTTGATCATTAGGAATAATCCTTAATGAGTC

The binders below were run against T1, PF3D7_0420300 D1 (assay: gcPBM; about 25 ug protein; PBS, 1% milk, 0.2 mg/ml BSA, salmon testes DNA, 0.03% Triton X-100). Conditions: tags: N-terminal GST (pGEX-4T-1), kept; label: surface-attached array probe.

| Binder | binding signal |
| --- | --- |
| B1 | 8.98 ln median PBM intensity, better of two orientations |
| B2 | 9 ln median PBM intensity, better of two orientations |
| B3 | 9.05 ln median PBM intensity, better of two orientations |
| B4 | 8.99 ln median PBM intensity, better of two orientations |
| B5 | 9 ln median PBM intensity, better of two orientations |
| B6 | 9.04 ln median PBM intensity, better of two orientations |
| B7 | 8.98 ln median PBM intensity, better of two orientations |
| B8 | 8.96 ln median PBM intensity, better of two orientations |
| B9 | 9.05 ln median PBM intensity, better of two orientations |
| B10 | 9.07 ln median PBM intensity, better of two orientations |
| B11 | 9.01 ln median PBM intensity, better of two orientations |
| B12 | 9.03 ln median PBM intensity, better of two orientations |
| B13 | 9.01 ln median PBM intensity, better of two orientations |
| B14 | 9.06 ln median PBM intensity, better of two orientations |
| B15 | 8.98 ln median PBM intensity, better of two orientations |
| B16 | 8.99 ln median PBM intensity, better of two orientations |
| B17 | 9.03 ln median PBM intensity, better of two orientations |
| B18 | 9.02 ln median PBM intensity, better of two orientations |
| B19 | 8.96 ln median PBM intensity, better of two orientations |
| B20 | 9.03 ln median PBM intensity, better of two orientations |
| B21 | 9.06 ln median PBM intensity, better of two orientations |
| B22 | 9.06 ln median PBM intensity, better of two orientations |

| Binder | binding signal |
| --- | --- |
| B23 | 9.05 ln median PBM intensity, better of two orientations |
| B24 | 9.02 ln median PBM intensity, better of two orientations |
| B25 | 9.02 ln median PBM intensity, better of two orientations |
| B26 | 8.97 ln median PBM intensity, better of two orientations |
| B27 | 9.02 ln median PBM intensity, better of two orientations |
| B28 | 9.07 ln median PBM intensity, better of two orientations |
| B29 | 8.99 ln median PBM intensity, better of two orientations |
| B30 | 10.6 ln median PBM intensity, better of two orientations |
| B31 | 10.6 ln median PBM intensity, better of two orientations |
| B32 | 9.04 ln median PBM intensity, better of two orientations |
| B33 | 8.99 ln median PBM intensity, better of two orientations |
| B34 | 8.97 ln median PBM intensity, better of two orientations |
| B35 | 9 ln median PBM intensity, better of two orientations |
| B36 | 10.6 ln median PBM intensity, better of two orientations |
| B37 | 8.99 ln median PBM intensity, better of two orientations |
| B38 | 9.07 ln median PBM intensity, better of two orientations |
| B39 | 9.01 ln median PBM intensity, better of two orientations |
| B40 | 9.04 ln median PBM intensity, better of two orientations |
| B41 | 9.01 ln median PBM intensity, better of two orientations |
| B42 | 8.98 ln median PBM intensity, better of two orientations |
| B43 | 8.99 ln median PBM intensity, better of two orientations |
| B44 | 9 ln median PBM intensity, better of two orientations |
